The nature of data set [1]: Mouse PK after single subcutaneous administration, LC-MS/MS of plasma. It is filed as in vivo, mice. The protocol:
Each of the experimental groups and the control was subcutaneously administered once to the dorsal area of a total of 12 mice using a 1 mL syringe equipped with a 26-gauge needle at a dose of 0.2 mg/5 mL/kg. After drug administration, approximately 0.04 to 0.05 mL of blood was collected per individual at the time scheduled for the orbital vein (4 mice were alternately sampled), and the blood collection times were 1, 2, 4, 8, 24 ,32 ,48, 56, 72, 96, and 120 hours. All plasma samples were analyzed using a self-developed LC-MS/MS assay. Pharmacokinetic analysis of blood drugs was performed using non-compartmental analysis, and analysis of pharmacokinetic parameters was performed using Phoenix WinNolin 64 (Version. 8.3.5 340).

Data set [2] deals with GLP-1R (Homo sapiens, UniProt P43220). As to the kind of experiment: GLP-1 activation: cell-based cAMP assay in GLP-1R/CHO cells. To be noted: Example 5, relative to Exendin-4.
The target in data set [3] is T1, GLP-2 (Homo sapiens, UniProt O95838).
T1 sequence (O95838 1-553): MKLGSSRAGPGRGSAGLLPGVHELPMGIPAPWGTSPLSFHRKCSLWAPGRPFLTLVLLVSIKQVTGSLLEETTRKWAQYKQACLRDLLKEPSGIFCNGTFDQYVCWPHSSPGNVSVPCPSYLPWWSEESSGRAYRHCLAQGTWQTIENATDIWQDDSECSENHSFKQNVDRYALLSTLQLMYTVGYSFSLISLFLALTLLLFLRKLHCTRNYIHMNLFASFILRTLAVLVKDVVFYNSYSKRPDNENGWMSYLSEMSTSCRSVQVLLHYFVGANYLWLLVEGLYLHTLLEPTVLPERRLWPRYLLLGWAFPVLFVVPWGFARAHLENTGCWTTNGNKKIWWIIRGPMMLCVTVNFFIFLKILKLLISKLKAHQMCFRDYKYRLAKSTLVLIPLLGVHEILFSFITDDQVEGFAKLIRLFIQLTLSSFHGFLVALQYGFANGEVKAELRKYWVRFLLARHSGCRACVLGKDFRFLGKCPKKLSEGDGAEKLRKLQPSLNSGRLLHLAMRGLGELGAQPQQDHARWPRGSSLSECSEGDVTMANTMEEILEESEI
Description: GLP-2 activity, cell-based cAMP assay (same method as Example 2). Particulars: for EC50: Example 5; for GLP-2 activity Compared to GLP-2: Example 5, relative to GLP-2.

Data set [4] has as its system C57BL/6 DIO mice. Description: Diet-induced obesity mouse model: blood/serum biochemical tests (Example 3). It counts as in vivo. Particulars: after 4 weeks, 0.20 mg/kg/dose (dose from Table 3). The procedure: Here, the body weight and food intake were measured daily.
In addition, after the experiment was completed, blood and serum samples were obtained from each mouse model, and biochemical tests were performed for blood glucose, total cholesterol, high-density lipoprotein (HDL), low-density lipoprotein (LDL), and triglycerides.

Data set [5] relates to C57BL/6 DIO mice. Description: Diet-induced obesity mouse model: body weight and food intake (Example 3). It is filed as in vivo. To be noted: 4 weeks administration, 0.20 mg/kg/dose.
The conditions of data set [6]: in vivo; cited from earlier work.
The target in data set [7] is GLP-1R (on GLP-1R/CHO cells, DiscoverX 95-0062C2) (UniProt P43220). Description: cell-based or functional assay.
Data set [8] has as its target T2, GLP-1R (on GLP-1R/CHO cells, DiscoverX 95-0062C2) (UniProt P43220 24-463). Description: cell-based or functional assay.
The target in data set [9] is T2, GLP-1R (on GLP-1R/CHO cells, DiscoverX …). Description: cell-based or functional assay. This is another data set of the same source.
[10] abbreviates: male, C57BL/6N, mouse, in vivo, sc.
[11] abbreviates: C57BL/6N male mice, single subcutaneous dose 0.2 mg/5 mL/kg, plasma.

Like-named read-outs stand apart in the source and are kept apart here. Ends that are not written are not given here. Peptide text beside a SMILES is read from it. * marks the point of attachment. Palmitoyl = CCCCCCCCCCCCCCCC(=O)*

T2 sequence (P43220 24-463 limits assumed): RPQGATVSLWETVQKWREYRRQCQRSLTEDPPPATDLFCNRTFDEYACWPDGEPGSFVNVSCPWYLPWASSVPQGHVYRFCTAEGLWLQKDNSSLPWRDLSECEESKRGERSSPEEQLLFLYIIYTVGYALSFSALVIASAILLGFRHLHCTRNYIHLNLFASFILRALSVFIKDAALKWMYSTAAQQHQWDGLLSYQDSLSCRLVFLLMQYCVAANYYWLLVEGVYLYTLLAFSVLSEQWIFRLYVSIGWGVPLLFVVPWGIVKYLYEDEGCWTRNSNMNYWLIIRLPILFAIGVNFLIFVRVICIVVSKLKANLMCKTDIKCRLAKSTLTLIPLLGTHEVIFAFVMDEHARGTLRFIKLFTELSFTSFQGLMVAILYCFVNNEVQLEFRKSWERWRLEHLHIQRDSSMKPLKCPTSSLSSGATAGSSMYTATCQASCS
Chain of GLP-1R (P43220 24-463): as the sequence (P43220 24-463 limits assumed) above
Chain of GLP-1R (on GLP-1R/CHO cells, DiscoverX 95-0062C2) (UniProt P43220) (P43220 24-463 limits assumed): as above

In the case of `CC[C@H](C)[C@H](NC(=O)[C@H](Cc1ccccc1)NC(=O)[C@H](CC(=O)O)NC(=O)[C@H](CCCNC(=N)N)NC(=O)[C@H](C)NC(=O)[C@H](C)NC(=O)[C@H](CC(C)C)NC(=O)[C@H](C)NC(=O)[C@H](CC(=O)O)NC(=O)[C@H](CC(C)C)NC(=O)[C@H](Cc1ccc(O)cc1)NC(=O)[C@@H](NC(=O)[C@H](CO)NC(=O)[C@H](CC(C)C)NC(=O)[C@H](CC(=O)O)NC(=O)[C@H](CO)NC(=O)[C@@H](NC(=O)[C@H](Cc1ccccc1)NC(=O)[C@@H](NC(=O)CNC(=O)[C@H](CCC(=O)O)NC(=O)CNC(=O)[C@@H](N)Cc1c[nH]cn1)[C@@H](C)O)[C@@H](C)O)[C@@H](C)O)C(=O)N[C@@H](CC(N)=O)C(=O)N[C@@H](Cc1c[nH]c2ccccc12)C(=O)N[C@@H](CC(C)C)C(=O)N[C@H](C(=O)N[C@@H](CCC(N)=O)C(=O)N[C@H](C(=O)N[C@@H](CCCCN)C(=O)N[C@H](C(=O)N[C@H](C(=O)N[C@@H](CC(=O)O)C(=O)N[C@@H](CCCCN)C(=O)N[C@@H](CCCCNC(=O)CC[C@H](NC(=O)CCCCCCCCCCCCCCCCCCC(=O)O)C(=O)O)C(=O)O)[C@@H](C)O)[C@@H](C)CC)[C@@H](C)O)[C@@H](C)CC` [HU020M2] (HELM PEPTIDE1{H.G.E.G.T.F.T.S.D.L.S.T.Y.L.D.A.L.A.A.R.D.F.I.N.W.L.I.Q.T.K.I.T.D.K.K}|PEPTIDE2{[O=C(O)CCCCCCCCCCCCCCCCCCC(=O)[*:2]].[gGlu]}$PEPTIDE1,PEPTIDE2,35:R3-2:R2$$$V2.0; N-terminus and C-terminus assumed), in [1] (setting [10]), the Tmax stood at 12 h and the half-life is 15.9 h. In addition, in data set [2], the “GLP-1 activity Compared to GLP-1 (Exendin-4)” value worked out at 1.5%. Besides, in [3], the EC50 was greater than 10000 nM and the “GLP-2 activity Compared to GLP-2” value was ~ 0.02%.
Regarding `CC[C@H](C)[C@H](NC(=O)[C@H](Cc1ccccc1)NC(=O)[C@H](CC(=O)O)NC(=O)[C@H](CCCNC(=N)N)NC(=O)[C@H](C)NC(=O)[C@H](C)NC(=O)[C@H](CC(C)C)NC(=O)[C@H](C)NC(=O)[C@H](CC(=O)O)NC(=O)[C@H](CC(C)C)NC(=O)[C@H](Cc1ccc(O)cc1)NC(=O)[C@@H](NC(=O)[C@H](CO)NC(=O)[C@H](CC(C)C)NC(=O)[C@H](CC(=O)O)NC(=O)[C@H](CO)NC(=O)[C@@H](NC(=O)[C@H](Cc1ccccc1)NC(=O)[C@@H](NC(=O)CNC(=O)[C@H](CCC(=O)O)NC(=O)C(C)(C)NC(=O)[C@@H](N)Cc1c[nH]cn1)[C@@H](C)O)[C@@H](C)O)[C@@H](C)O)C(=O)N[C@@H](CCCCNC(=O)CC[C@H](NC(=O)CCCCCCCCCCCCCCCCC(=O)O)C(=O)O)C(=O)N[C@@H](Cc1ccccc1)C(=O)N[C@@H](C)C(=O)N[C@@H](Cc1c[nH]c2ccccc12)C(=O)N[C@@H](CC(C)C)C(=O)N[C@H](C(=O)N[C@@H](CCC(N)=O)C(=O)N[C@H](C(=O)N[C@@H](CCCCN)C(=O)N[C@H](C(=O)N[C@H](C(=O)N[C@@H](CC(=O)O)C(=O)O)[C@@H](C)O)[C@@H](C)CC)[C@@H](C)O)[C@@H](C)CC` [HU020M7] (HELM PEPTIDE1{H.[Aib].E.G.T.F.T.S.D.L.S.T.Y.L.D.A.L.A.A.R.D.F.I.K.F.A.W.L.I.Q.T.K.I.T.D}|PEPTIDE2{[O=C(O)CCCCCCCCCCCCCCCCC(=O)[*:2]].[gGlu]}$PEPTIDE1,PEPTIDE2,24:R3-2:R2$$$V2.0; N-terminus and C-terminus assumed), in data set [2], the “GLP-1 activity Compared to GLP-1 (Exendin-4)” value is 20.2%. Also, the “GLP-2 activity Compared to GLP-2” value in data set [3] was less than 4.0%.
As for `CCCCCCCCCCCCCCCC(=O)N[C@@H](CCC(=O)NCCCC[C@H](NC(=O)[C@H](C)NC(=O)[C@H](C)NC(=O)[C@H](CCC(N)=O)NC(=O)CNC(=O)[C@H](CCC(=O)O)NC(=O)[C@H](CC(C)C)NC(=O)[C@H](Cc1ccc(O)cc1)NC(=O)[C@H](CO)NC(=O)[C@H](CO)NC(=O)[C@@H](NC(=O)[C@H](CC(=O)O)NC(=O)[C@H](CO)NC(=O)[C@@H](NC(=O)[C@H](Cc1ccccc1)NC(=O)[C@@H](NC(=O)CNC(=O)[C@H](CCC(=O)O)NC(=O)[C@H](C)NC(=O)[C@@H](N)Cc1c[nH]cn1)[C@@H](C)O)[C@@H](C)O)C(C)C)C(=O)N[C@@H](CCC(=O)O)C(=O)N[C@@H](Cc1ccccc1)C(=O)N[C@H](C(=O)N[C@@H](C)C(=O)N[C@@H](Cc1c[nH]c2ccccc12)C(=O)N[C@@H](CC(C)C)C(=O)N[C@H](C(=O)N[C@@H](CCCNC(=N)N)C(=O)NCC(=O)N[C@@H](CCCNC(=N)N)C(=O)NCC(=O)O)C(C)C)[C@@H](C)CC)C(=O)O` [Liraglutide, reference compound], in [4], the “Blood glucose” value was determined as 209.2 ± 26.7 mg/dL, the “High-density lipoprotein” value was found to be 74.7 ± 2.6 mg/dL, the “Low-density lipoprotein” value is 9.7 ± 3.3 mg/dL and the “Triglyceride” value worked out at 9.6 ± 0.8 mg/dL. In data set [5], the “Cumulative food intake” value is 58.5 ± 2.5 g and the “Weight” value worked out at 40.1 ± 4.9 g.
As for GLP-1, the “half-life (t1/2)” value in data set [6] is less than 2 min.
Regarding “HGEGTFTSDLSTYLDALAAC(+mPEG)DFINWLIQTKITDKK(+C16 FA) (HGEGTFTSDLSTYLDALAAC(mPEG 3.4 kDa)DFINWLIQTKITDKK(C16 fatty acid)) [HU020M6, 3.4kDa maleimidated PEG conjugated to cysteine at position 20, C16 fatty acid]”, in [1] (setting [11]), the AUClast came to 6508.0 ng·h/mL, the Cmax was 433.6 ng/mL, the T1/2 came out at 7.0 h and the Tmax amounted to 8.0 h. For the same molecule, in data set [3], the “GLP-2 activity Compared to GLP-2” value is ~ 0.02%. For the same molecule, in data set [3] (read-out: GLP-2 activity (EC50)), the EC50 is greater than 10000 nM.
For the molecule Semaglutide (peptide), the GLP-1 activity, Compared to GLP-1 (Exendin-4) in data set [7] was 24.5%.
For the molecule HGEGTFTSDLSTYLDALAARDFINWLIQTKITDKK(Palmitoyl) [HU020K2FA], in [8], the “EC50, cAMP increase in GLP-1R/CHO cells, average (n=4)” value was determined as 0.0151 nM and the “Relative to GLP-1 (Exendin-4) %, cAMP in GLP-1R/CHO cells, average (n=4)” value worked out at 63.4%. Besides, in data set [9], the “GLP-1 activity (EC50, pM)” value was determined as 30.1 pM and the “GLP-1 activity, Compared to GLP-1 (Exendin-4)” value came out at 23.6%.
The matching figures for HGEGTFTSDLSTYLDALAARDFINWLIQTKITD [HU020]: 0.0048 nM, 199%, 4.15 pM and 171%.
